Consider ten molecules from patent publication US20240002505A1 (NANJING IASO BIOTECHNOLOGY, published 2024).

T1: Recombinant biotinylated Human CD19 Protein-Fc (Kactus, CD2-HE121) (human, UniProt P15391 20-291, biotinylated)
T1 construct: Control antigen; also called CD19-Fc-Bio; Kactus-CD19-FC-Bio; not shown: Fc tag
T1 sequence (looked up): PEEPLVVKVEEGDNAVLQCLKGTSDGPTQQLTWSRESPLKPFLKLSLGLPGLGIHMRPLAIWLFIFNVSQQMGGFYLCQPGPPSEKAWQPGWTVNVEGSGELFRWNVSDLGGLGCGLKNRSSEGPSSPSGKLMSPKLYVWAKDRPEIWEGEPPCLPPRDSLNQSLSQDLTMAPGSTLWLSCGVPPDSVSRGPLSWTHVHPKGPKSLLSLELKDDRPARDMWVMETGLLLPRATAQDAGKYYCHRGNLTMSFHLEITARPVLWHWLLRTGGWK

T2: Biotinylated Recombinant human BAFFR Protein (Kactus, BAF-HM40RB) (human, UniProt Q96RJ3 7-71, limits assumed, biotinylated)
T2 construct: Non-related control antigen; also called Kactus-BAFFR-his-Bio; not shown: his tag
T2 sequence (looked up): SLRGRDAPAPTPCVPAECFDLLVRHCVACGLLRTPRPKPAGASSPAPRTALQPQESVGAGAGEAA

T3: CD5 antigen (Octet affinity determination, Example 8) (UniProt P06127 25-372, limits assumed)
T3 sequence (looked up): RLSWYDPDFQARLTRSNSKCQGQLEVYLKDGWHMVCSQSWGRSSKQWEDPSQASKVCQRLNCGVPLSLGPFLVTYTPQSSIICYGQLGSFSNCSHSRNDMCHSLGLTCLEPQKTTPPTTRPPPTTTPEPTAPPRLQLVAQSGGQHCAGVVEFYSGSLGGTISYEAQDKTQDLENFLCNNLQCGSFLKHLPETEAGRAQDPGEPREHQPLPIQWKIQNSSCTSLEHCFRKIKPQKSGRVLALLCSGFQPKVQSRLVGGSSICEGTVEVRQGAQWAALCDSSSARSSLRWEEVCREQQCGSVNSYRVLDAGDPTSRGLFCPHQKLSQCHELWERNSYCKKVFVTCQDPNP

T4: human CD5 on the cell surface (human, UniProt P06127 25-495)
T4 construct: whole, on cells; One molecule for CD5 on all cell lines; also called natural CD5 on the cell membrane; CD5 antigen on Jurkat, CCRF-CEM, MOLT4 cells
T4 sequence (looked up): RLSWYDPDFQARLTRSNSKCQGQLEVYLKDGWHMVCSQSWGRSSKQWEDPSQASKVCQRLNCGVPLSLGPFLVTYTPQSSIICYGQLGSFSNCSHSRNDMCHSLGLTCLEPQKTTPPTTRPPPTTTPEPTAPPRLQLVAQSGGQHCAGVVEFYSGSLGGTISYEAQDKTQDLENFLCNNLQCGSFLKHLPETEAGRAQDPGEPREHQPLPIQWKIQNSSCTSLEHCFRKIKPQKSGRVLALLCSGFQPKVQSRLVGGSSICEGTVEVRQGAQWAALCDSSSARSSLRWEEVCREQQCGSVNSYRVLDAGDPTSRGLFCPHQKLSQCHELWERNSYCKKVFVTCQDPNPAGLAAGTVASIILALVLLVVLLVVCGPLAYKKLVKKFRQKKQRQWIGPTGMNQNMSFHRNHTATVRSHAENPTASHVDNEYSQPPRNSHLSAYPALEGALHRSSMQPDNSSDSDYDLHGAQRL

B1: phage monoclone #32 (scFv)
scFv: QVQLVESGGGLVKPGGSLRLSCAASGFTFSSYSMNWVRQAPGKGLEWVSSISSSSSYIYYADSVKGRFTISRDNAKNSLYLQMNSLRAEDTAVYYCARGNPWYGVDYWGQGTLVTVSSTSGGGGSGGGGSGGGGSELQSVLTQPPSVSAAPGQKVTISCSGSNSNIGNNYVSWYQQLPGTAPKRLIYDNNKRPSGIPDRFSGSKSGTSATLGITGLQTGDEADYYCGIWDSSLDAYVFGTGTKVTVLG
notes: also called scFv32
B2: phage monoclone #10 (scFv)
scFv: QSVVTQPPSVSGAPGQRVTISCTGSSSNIGAGYDVHWYQQLPGTAPKLLIYGNINRPSGVPDRFSGSKSGTSASLAITGLQAEDEADYYCGTWDNSLSAHYVFGTGTKVTVLGSRGGGGSGGGGSGGGGSLEEVQLLESGGGLVKPGGSLRLSCAASGFTFNNYTMNWVRQAPGKGLEWVSSISSSSSYIYYADSVKGRFTISRDNAKNSLFLQMNSLRGEDTAVYYCARYFSGSAGDYWGQGTLVTVSS
notes: also called scFv10
B3: phage monoclone #6 (scFv)
scFv: NFMLTQPHSVSESPGKTVTISCTGNSGSIARNYVQWYQQRPGSAPTMLIYEDNRRPSGVPDRFSGSIDSSSNSASLTISGLKTEDEADYYCQSYDDNTSWVFGGGTKLTVLGSRGGGGSGGGGSGGGGSLEMAEVQLVQSGAEVKKPGSSVKVSCKASGGTFSSNAITWVRQAPGQGLEWMGGIIPMFGTTDYAQKFQGRVTMTADESTSTAYMELRSLRSEDTAVYYCARDGGGRHPYYYYGMDVWGQGTTVTVSS
notes: also called scFv6
B4: phage monoclone #9 (scFv)
scFv: QPVLTQPPSVSGSPGQSVTISCTGTSDDIGNYKRVSWYQQPPGTAPKLMIYEVTNRPPGVPNRFSGSKSGNTASLTISGLQAEDEADYYCSSYASGDTYVFGTGTKVTVLGSRGGGGSGGGGSGGGGSLEQVQLVQSGAEVEKPGASVKISCKASTYTFTNYYIHWVRQAPGQGLEWMGMINPSGDTTSYAQKFQGRVTMTRDTSTSTVYMELSSLRSEDTAVYYCARLSWYWGGSFDDWGQGTLVTVSS
notes: also called scFv9
B5: phage monoclone #7 (scFv)
scFv: QSVVTQPPSVSAAPGQKATISCSGSSSNIGNNDVSWYQQLPGTAPKLLIQDNDKRPSGIPDRFSGSKSGTSATLGITGLQTGDEADYYCAVWDSSLSAAVFGPGTKVTVLGSRGGGGSGGGGSGGGGSLEMAEVQLVQSGAEVKKPGESLKISCKGSGYSFTSYWIGWVRQMPGKGLEWMGIIYPDDSDTTYSPSFQGQVTMSVDKSISTAYLQWNSLQASDTAMYYCARMSLTSYLATDGWGQGTLVTVSS
notes: also called scFv7
B6: phage monoclone #35 (scFv)
scFv: QSVLTQPPSVSAAPGQKVTISCSGSSSNIGNNYVSWYQQLPGTAPKLLIYDNNKRPSGIPDRFSGSKSGTSATLGITGLQTGDEADYYCGTWDSSLSAVVFGGGTKLTVLGSRGGGGSGGGGSGGGGSLEMAQVQLVESGGGLVQPGGSLRLSCAASGFTFSSYAMSWVRQTPGKGLEWVSTITDSGDITYYTASVQGRFTISRDNSKNTLYLQMNSLRAEDTAVYYCARMSSHWYFSADYWGQGTLVTVSS
notes: also called scFv35
B7: H65 anti-CD5 IgG (antibody, V domains shown)
VH: QIQLVQSGPELKKPGETVKISCKASGYTFTNYGMNWVKQAPGKGLRWMGWINTHTGEPTYADDFKGRFAFSLETSASTAYLQINNLKNEDTATYFCTRRGYDWYFDVWGAGTTVTVSS
VL: DIKMTQSPSSMYASLGERVTITCKASQDINSYLSWFHHKPGKSPKTLIYRANRLVDGVPSRFSGSGSGQDYSLTISSLDYEDMGIYYCQQYDESPWTFGGGTKLEIK
B8: Clone 10 anti-CD5 IgG (antibody, V domains shown)
VH: EVQLLESGGGLVKPGGSLRLSCAASGFTFNNYTMNWVRQAPGKGLEWVSSISSSSSYIYYADSVKGRFTISRDNAKNSLFLQMNSLRGEDTAVYYCARYFSGSAGDYWGQGTLVTVSS
VL: QSVVTQPPSVSGAPGQRVTISCTGSSSNIGAGYDVHWYQQLPGTAPKLLIYGNINRPSGVPDRFSGSKSGTSASLAITGLQAEDEADYYCGTWDNSLSAHYVFGTGTKVTVLG
B9: Clone 35 anti-CD5 IgG (antibody, V domains shown)
VH: QVQLVESGGGLVQPGGSLRLSCAASGFTFSSYAMSWVRQTPGKGLEWVSTITDSGDITYYTASVQGRFTISRDNSKNTLYLQMNSLRAEDTAVYYCARMSSHWYFSADYWGQGTLVTVSS
VL: QSVLTQPPSVSAAPGQKVTISCSGSSSNIGNNYVSWYQQLPGTAPKLLIYDNNKRPSGIPDRFSGSKSGTSATLGITGLQTGDEADYYCGTWDSSLSAVVFGGGTKLTVLG
notes: The VH entry as printed begins with MA carried over from the scFv
B10: Clone 32 anti-CD5 IgG (antibody, V domains shown)
VH: QVQLVESGGGLVKPGGSLRLSCAASGFTFSSYSMNWVRQAPGKGLEWVSSISSSSSYIYYADSVKGRFTISRDNAKNSLYLQMNSLRAEDTAVYYCARGNPWYGVDYWGQGTLVTVSS
VL: B9 VL with S26N, L47R, T91I, S97D, V99Y, G103T, L107V

Residue numbers refer to the chain shown, from its start.

For one assay, the target named is T5, Streptavidin (Pierce, 21125) (UniProt P22629 37-163, limits assumed).
T5 construct: Non-related control antigen; also called SA
T5 sequence (P22629 37-163 limits assumed): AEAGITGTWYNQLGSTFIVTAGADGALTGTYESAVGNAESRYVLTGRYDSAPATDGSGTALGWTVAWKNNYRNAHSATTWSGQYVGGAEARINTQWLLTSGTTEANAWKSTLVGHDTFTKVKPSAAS
Put plainly: phage ELISA.
For B1, the binding result is “no binding”.
Consider B2, for which the binding result is listed as “no binding”.
As for B3, the binding result is “no binding”.
As for B4, the binding result is “no binding”.
Still for that read-out and setting: then B5, with “no binding”; and B6, with “no binding”.

The target in another assay is T1, Recombinant biotinylated Human CD19 …. Description: phage ELISA.
Consider B1, for which the binding result is given as “no binding”.
Consider B2, for which the binding result is recorded as “no binding”.
Still for that read-out and setting: then B3, with “no binding”; and B4, with “no binding”; and B5, with “no binding”.
Still for that read-out and setting: then B6, with “no binding”.

In another assay the target is T2, Biotinylated Recombinant human BAFFR …. Description: phage ELISA.
On to B1, for which the binding result is listed as “no binding”.
Still for that read-out and setting: for B2 the value was “no binding”; for B3, “no binding”; for B4, “no binding”.
B5: the binding result is recorded as “no binding”.
Same read-out and setting: then B6, with “no binding”.

A further assay has as its target T3, CD5 antigen (Octet affinity …). Description: BLI (Octet), IgG loaded on the biosensor, CD5 antigen 400 to 12.5 nM, 1:1 model.
The molecule B7 showed a Kd of 2.25 nM, a koff of 0.000813 s⁻¹ and a kon of 361000 M⁻¹ s⁻¹.
The molecule B8 had a Kd of 4.49 nM, a koff of 0.00143 s⁻¹ and a kon of 318000 M⁻¹ s⁻¹.
Molecule B9 returned a Kd of 13.6 nM, a koff of 0.000382 s⁻¹ and a kon of 28100 M⁻¹ s⁻¹.
The molecule B10 came in with a Kd of 28.3 nM, a koff of 0.00217 s⁻¹ and a kon of 76500 M⁻¹ s⁻¹.

The target in another assay is T4, human CD5 on the cell surface. Put plainly: phage FACS on CCRF-CEM cells (CD5 positive), anti-M13 + FITC anti-mouse IgG, median of FITC-A.
B2: the “Median (B1-A)” value was 17.1.
For B3, the “Median (B1-A)” value worked out at 1.71.
Same read-out and setting: for B4 the value was 3.37; for B5, 12.4.

For the next assay the target is unchanged. Put plainly: phage FACS on Jurkat cells (CD5 positive), anti-M13 + FITC anti-mouse IgG, median of FITC-A.
Take B2: the “Median (B1-A)” value was 31.6.
The same measure, in the same setting: for B3 the value was 71.8; for B4, 12.8.
In the case of B5, the “Median (B1-A)” value turned out to be 28.3.
